Assay [1] deals with T1, D1R from mouse hippocampus tissue (Mus musculus, UniProt Q61616).
T1 construct: from tissue; host or cells: mouse hippocampus tissue extract
Put plainly: GST pulldown analysis of mouse hippocampus tissue extract with Western blot. Particulars: 15 μg GST fusion protein, 500 μg mouse hippocampus tissue extract, overnight 4° C. The class given is binding. The text has this:
In order to confirm the interbinding site of the 5-HT2AR/D1R complex, the 5-HT2AR full-length cDNA clone (Genbank Accession No.: NM_001378924) was first amplified to obtain cDNA fragments of the CT region of 5-HT2AR (K385-V471) and the third intracellular loop (IL3) region of 5-HT2AR (F255-V324). These fragments were subcloned to the BamH1/EcoR1 or BamH1/Xho1 site of a pGEX-4T-3 plasmid (YouBio no: VT1255). The initial methionine residue and termination codon were incorporated as appropriate. All constructs were resequenced to confirm that splicing and fusion was achieved appropriately. The GST fusion protein containing the third intracellular loop (IL3) of 5-HT2AR (GST-5HT2AR-IL3) and the GST fusion protein containing the CT region of 5-HT2AR (GST-5HT2AR-CT) were expressed from E. coli BL21 viable cells (AlpalifeBio, no: KTSM104L) and purified from bacterial lysate solution.
500 μg of dissolved mouse hippocampus tissue extract was diluted with 1×PBS/1% Triton X-100 and then incubated overnight with 20 μl protein GST resin saturated GST protein or 15 μg GST fusion protein at 4° C. Beads were washed 1-8 times with 1×PBS/1% Triton X-100. Binding proteins were eluted with 2×loading buffer, separated by SDS-PAGE, and underwent Western blot with respective antibodies thereof.
According to the method in the present Example, a pulldown analysis was performed using a GST fusion protein containing a KV region of 5-HT2AR (GST-5HT2AR-KV), a GST fusion protein containing a NN region of 5-HT2AR (GST-5HT2AR-NN), and a GST fusion protein containing a DV region of 5-HT2AR (GST-5HT2AR-DV), and the results of Western blot were shown in FIG. 4 B.
According to the method in the present Example, a pulldown analysis was performed using a GST fusion protein containing a DA region of 5-HT2AR (GST-5HT2AR-DA), and a GST fusion protein containing a SV region of 5-HT2AR (GST-5HT2AR-SV), and the results of Western blot were shown in FIG. 4 C.

A further assay has as its system 5-HT2AR and D1R. Put plainly: Direct Western blot of hippocampus tissue from polypeptide-treated mice. The class given is in vivo. Particulars: mouse hippocampus tissue, single intraperitoneal 3 nmol/g, vs TAT. The procedure: (§1) Western blot analysis was carried out after precipitation: the denatured protein was separated on 8% SDS-PAGE gel, then transferred to cellulose nitrate membrane and blocked with TBST; then incubated with mouse antibodies against D1R (SantaCruz Biotechnology, sc-33660) and D2R (SantaCruz Biotechnology, sc-5303) overnight at 4° C.; finally, treated with HRP-coupled secondary antibody for 1 hour, SuperSignal ECL Chemiluminescence Kit was used to detect the signal, and Image Lab software was used to analyze the density of the bands.
In addition, the hippocampus tissues of TAT-5HT2AR-SV and TAT-treated mice were directly analyzed by Western blot.

Assay [2] relates to mice. Put plainly: Elevated plus maze test (EPM). It is filed as in vivo, mouse. Particulars: single intraperitoneal 3 nmol/g, 1 hour after treatment, 5 min, vs TAT. The procedure: (§2) To evaluate the antianxiety-like effect of the polypeptide of the present invention, mice treated with TAT-5HT2AR-SV, TAT-5HT2AR-DV, TAT-5HT2AR-CT (all treated by single intraperitoneal administration, 3 nmol/g) were subjected to open field test (OFT) for measuring residence time in central area and elevated plus maze test (EPM) 1 hour after treatment, with TAT-treated mice as control. Methods for the tests are as follows:
EPM: consists of two open arms (25 cm×8 cm) and two closed arms (25 cm×8 cm), with the intersection as the central area (8 cm×8 cm), which is 40 cm high from the ground. 1 hour after treated with the polypeptide, mice were placed in the central area facing the open arm, and were recorded for their free activities for 5 min. After each animal was tested, the device was wiped with 70% alcohol. The residence time at the open arm, the residence time at the closed arm, and the total movement distance of mice were recorded.

The subject of a further assay is D1R and 5-HT2AR. Put plainly: Direct Western blot of hippocampus tissue from treated stressed mice. The class given is in vivo, mouse. Particulars: CRS, CMS and CSDS mice. The procedure:
as §1
To further evaluate the ability of the polypeptide as an antidepressant, CRS, CMS and CSDS mouse models were constructed according to the method described in Example 2, respectively; 1 hour after construction, mouse models were treated with 10 μM TAT-5HT2AR-SV, TAT-5HT2AR-DV, TAT-5HT2AR-CT or TAT respectively (all treated by single intraperitoneal administration, 3 nmol/g); then FST and TST were performed on CRS, and FST, TST and sucrose preference test (SPT) were performed on CMS and CSDS mice respectively.
Further, the hippocampus tissue of treated CRS mice was directly analyzed by Western blot to investigate the expression levels of D1R and 5-HT2AR, and the results are shown in FIG. 10.
In addition, CRS, CMS and CSDS mice treated with TAT-5HT2AR-DV or TAT-5HT2AR-CT were tested respectively.

Assay [3] has as its target T2, 5-HT2AR/D1R complex (Mus musculus, UniProt Q61616).
T2 construct: Co-immunoprecipitation was performed using protein samples (100-500 μg protein) from mouse hippocampus tissue; from tissue; host or cells: hippocampus tissue of treated mice (naive, CRS, CMS, CSDS)
Put plainly: Co-immunoprecipitation of hippocampus tissue from polypeptide-treated mice. Particulars: single intraperitoneal administration 3 nmol/g, 1 hour after treatment, control TAT only. The class given is in vivo. How it is done: (§3) Co-immunoprecipitation was performed using protein samples (100-500 μg protein) from mouse hippocampus tissue. Precipitation was performed using a mouse antibody against 5-HT2AR (SantaCruz Biotechnology, sc-166775) and 25 μl protein A/G plus agarose bead slurry (santaCruz Biotechnology, sc-2001).
as §1
Mice were treated with TAT-5HT2AR-SV, TAT-5HT2AR-DV and TAT-5HT2AR-CT, and mice treated with TAT only were used as control (all treated by single intraperitoneal administration, 3 nmol/g). 1 hour after the treatment, the mice used were analyzed according to the co-immunoprecipitation method in Example 1, and the results are shown in FIG. 5.

Assay [4] concerns mice. Put plainly: OFT for residence time in central area. It is filed as in vivo, mouse. Particulars: single intraperitoneal 3 nmol/g, 1 hour after treatment, 5 min, vs TAT. The procedure:
as §2
OFT (for measuring the residence time in central area): open bottom surface was divided into 25 equal-area grids, with the middle 9 grids as the central area. 1 hour after treated with the polypeptide, mice were placed in the central area and recorded for 5 min, and the residence time of mice in the central area was recorded.

Assay [5] deals with T2, 5-HT2AR/D1R complex. Put plainly: Co-immunoprecipitation of hippocampus tissue from polypeptide-treated CRS, CMS and CSDS mice. It is filed as in vivo. Particulars: hippocampus tissue of stressed CRS, single intraperitoneal 3 nmol/g, vs TAT. The procedure: as §3
Western blot analysis was carried out after precipitation: the denatured protein was separated on 8% SDS-PAGE gel, then transferred to cellulose nitrate membrane and blocked with TBST; then incubated with mouse antibodies against D1R (SantaCruz Biotechnology, sc-33660) and D2R (SantaCruz Biotechnology, sc-5303) overnight at 4° C.; finally, treated with HRP-coupled secondary antibody for 1 hour, SuperSignal ECL Chemiluminescence Kit was used to detect the signal, and Image Lab software was used to analyze the density of the bands. […]
The treated CRS, CMS and CSDS mice of Example 6 (TAT-5HT2AR-SV, TAT-5HT2AR-DV, TAT-5HT2AR-CT and TAT) were analyzed according to the co-immunoprecipitation method of Example 1, and the Western blot results were shown in FIG. 9, respectively.

The target in assay [6] is T3, 5-HT2A receptor (5-HT2AR), endogenous, from mouse hippocampus tissue (mouse, UniProt P35363 1-471).
T3 construct: Native protein in a tissue lysate, precipitated with a mouse anti-5-HT2AR antibody (sc-166775)
T3 sequence (P35363 whole entry): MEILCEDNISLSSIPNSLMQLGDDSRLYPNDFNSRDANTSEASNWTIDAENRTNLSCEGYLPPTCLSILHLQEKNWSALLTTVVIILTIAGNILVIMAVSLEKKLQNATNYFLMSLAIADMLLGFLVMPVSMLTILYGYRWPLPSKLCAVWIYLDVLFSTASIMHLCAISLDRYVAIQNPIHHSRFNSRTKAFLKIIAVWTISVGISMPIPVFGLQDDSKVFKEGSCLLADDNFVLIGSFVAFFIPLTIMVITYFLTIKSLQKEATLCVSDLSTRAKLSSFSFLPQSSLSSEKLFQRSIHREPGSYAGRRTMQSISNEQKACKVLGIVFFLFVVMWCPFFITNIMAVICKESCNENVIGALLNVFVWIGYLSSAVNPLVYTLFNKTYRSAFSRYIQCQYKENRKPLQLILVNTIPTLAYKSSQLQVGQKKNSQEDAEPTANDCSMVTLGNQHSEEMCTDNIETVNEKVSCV
Put plainly: co-immunoprecipitation from mouse hippocampus tissue with anti-5-HT2AR antibody, Western blot for D2R.

Ends that are not written are not given here.

T2 sequence (Q61616 whole entry, one chain of several): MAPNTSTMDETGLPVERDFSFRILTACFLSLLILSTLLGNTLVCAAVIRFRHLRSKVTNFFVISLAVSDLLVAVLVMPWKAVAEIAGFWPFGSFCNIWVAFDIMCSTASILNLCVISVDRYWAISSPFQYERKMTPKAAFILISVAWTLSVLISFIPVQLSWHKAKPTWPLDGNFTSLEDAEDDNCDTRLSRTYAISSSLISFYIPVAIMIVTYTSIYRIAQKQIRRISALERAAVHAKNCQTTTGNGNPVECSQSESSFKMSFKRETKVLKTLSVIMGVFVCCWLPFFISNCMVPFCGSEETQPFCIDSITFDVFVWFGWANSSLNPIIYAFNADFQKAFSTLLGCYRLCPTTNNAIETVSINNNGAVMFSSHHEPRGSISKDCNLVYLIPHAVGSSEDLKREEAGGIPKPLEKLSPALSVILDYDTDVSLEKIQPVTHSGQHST
T1 sequence (Q61616 whole entry): as the sequence (Q61616 whole entry, one chain of several) above

With “GST-5HT2AR-DV: GST fusion protein containing a DV region of 5-HT2AR (D442-V471) (DCSMVALGKQHSEEASKDNSDGVNEKVSCV; not fully specified (N-terminus); cysteine pairing not given here; also: GST fusion protein)”, in assay [1], the “pulldown of / affinity to D1R” value is given as “can pulldown DIR”.

For the molecule “GST-5HT2AR-SV: GST fusion protein containing a SV region of 5-HT2AR (S457-V471) (SKDNSDGVNEKVSCV; not fully specified (N-terminus); also: GST fusion protein)”, in assay [1], the “pulldown of / affinity to D1R” value was “has an affinity to D1R”.

As for “TAT-5HT2AR-DV: DV region (D442-V471) of 5-HT2AR fused with TAT (DCSMVALGKQHSEEASKDNSDGVNEKVSCV; cysteine pairing not given here; also: fused with TAT peptide at C-terminal region; UniProt P28223 442-471, looked up, fragment)”, the “expression of 5-HT2AR and D1R” value in the assay on 5-HT2AR and D1R is on record as “did not cause a significant change”. Further, in the assay with mice [2], the “EPM residence time at the closed arm” value is given as “decreased residence time at the closed arm” and the “EPM residence time at the open arm” value was “significantly increased residence time at the open arm”. The “D1R and 5-HT2AR levels” value in the assay on D1R and 5-HT2AR was “did not cause a significant change”. Moreover, the “interaction of 5-HT2AR/D1R (co-immunoprecipitation)” value with 5-HT2AR/D1R complex [3] was “successfully destroyed the interaction of 5-HT2AR/D1R”. Also, the “OFT residence time in the central region” value in the assay with mice [4] was “significantly increased the residence time”. Moreover, the “interaction between 5-HT2AR and D1R (co-immunoprecipitation)” value in the assay with 5-HT2AR/D1R complex [5] was “significantly reduced the interaction between 5-HT2AR and D1R”.

B1: Dopamine D2 receptor (D2R), endogenous, from mouse hippocampus tissue (receptor, UniProt P61168 1-444, looked up)
chain: MDPLNLSWYDDDLERQNWSRPFNGSEGKPDRPHYNYYAMLLTLLIFIIVFGNVLVCMAVSREKALQTTTNYLIVSLAVADLLVATLVMPWVVYLEVVGEWKFSRIHCDIFVTLDVMMCTASILNLCAISIDRYTAVAMPMLYNTRYSSKRRVTVMIAIVWVLSFTISCPLLFGLNNTDQNECIIANPAFVVYSSIVSFYVPFIVTLLVYIKIYIVLRKRRKRVNTKRSSRAFRANLKTPLKGNCTHPEDMKLCTVIMKSNGSFPVNRRRMDAARRAQELEMEMLSSTSPPERTRYSPIPPSHHQLTLPDPSHHGLHSNPDSPAKPEKNGHAKIVNPRIAKFFEIQTMPNGKTRTSLKTMSRRKLSQQKEKKATQMLAIVLGVFIICWLPFFITHILNIHCDCNIPPVLYSAFTWLGYVNSAVNPIIYTTFNIEFRKAFMKILHC
notes: Native protein in a tissue lysate, detected by Western blot with sc-5303
In the case of B1, the binding result in assay [6] was “no binding”.

B2: TAT-5HT2AR-CT: CT region (K385-V471) of 5-HT2AR fused with TAT (peptide, UniProt P28223 385-471, looked up, fragment)
chain: KTYRSAFSRYIQCQYKENKKPLQLILVNTIPALAYKSSQLQMGQKKNSKQDAKTTDNDCSMVALGKQHSEEASKDNSDGVNEKVSCV
modifications: C-terminal region fused with TAT peptide
notes: CT region (K385-V471) of 5-HT2AR fused with TAT
Take B2: in the assay with 5-HT2AR and D1R, the “expression of 5-HT2AR and D1R” value is “did not cause a significant change”. In the assay with mice [2], the “EPM residence time at the closed arm” value was “decreased residence time at the closed arm” and the “EPM residence time at the open arm” value is “significantly increased residence time at the open arm”. Also, the “D1R and 5-HT2AR levels” value in the assay on D1R and 5-HT2AR is given as “did not cause a significant change”. Besides, in the assay with 5-HT2AR/D1R complex [3], the “interaction of 5-HT2AR/D1R (co-immunoprecipitation)” value was “successfully destroyed the interaction of 5-HT2AR/D1R”. For the same molecule, in the assay on mice [4], the “OFT residence time in the central region” value is given as “significantly increased the residence time”. For the same molecule, the “interaction between 5-HT2AR and D1R (co-immunoprecipitation)” value in the assay with 5-HT2AR/D1R complex [5] is “significantly reduced the interaction between 5-HT2AR and D1R”.

B3: GST-5HT2AR-CT: GST fusion protein containing the CT region of 5-HT2AR (K385-V471) (protein)
chain: B2 chain
modifications: left off: a dimerising Fc or GST
B3: the “pulldown of / affinity to D1R” value in assay [1] is “can pulldown DIR”.

The record behind these values is patent US20240390459A1, “ANTI-DEPRESSION AND ANTI-ANXIETY APPLICATION OF POLYPEPTIDE AND COMPLEX” (SHENZHEN CHENYANG BIOLOGICAL TECHNOLOGY CO., LTD, priority 2021, published 2024).
